Reference: patent publication US20250276018A1 (AFFYIMMUNE THERAPEUTICS, published 2025)
Read-outs that look alike come from different tables or passages of the source.

What was measured:
[1] = target: T1, c-MET on human target cells (human, UniProt P08581 25-1390); assay: cell-based or functional assay
[2] = target: T1, c-MET on human target cells; assay: cell-based or functional assay; remark: listed apart in the source
[3] = target: T1, c-MET on human target cells; assay: cell-based or functional assay; remark: listed apart in the source
[4] = target: T1, c-MET on human target cells; assay: cell-based or functional assay; remark: listed apart in the source
[5] = target: T2, AF647 labeled c-met protein (UniProt P08581 25-932, limits assumed, labeled with AlexaFluor 647 (AF647)); assay: flow cytometry, AF647-labeled c-met protein titrated on CAR-T cells (Round 1)
T2 construct: Soluble labeled c-met protein titrated on CAR-T cells
T2 sequence (P08581 25-932 limits assumed): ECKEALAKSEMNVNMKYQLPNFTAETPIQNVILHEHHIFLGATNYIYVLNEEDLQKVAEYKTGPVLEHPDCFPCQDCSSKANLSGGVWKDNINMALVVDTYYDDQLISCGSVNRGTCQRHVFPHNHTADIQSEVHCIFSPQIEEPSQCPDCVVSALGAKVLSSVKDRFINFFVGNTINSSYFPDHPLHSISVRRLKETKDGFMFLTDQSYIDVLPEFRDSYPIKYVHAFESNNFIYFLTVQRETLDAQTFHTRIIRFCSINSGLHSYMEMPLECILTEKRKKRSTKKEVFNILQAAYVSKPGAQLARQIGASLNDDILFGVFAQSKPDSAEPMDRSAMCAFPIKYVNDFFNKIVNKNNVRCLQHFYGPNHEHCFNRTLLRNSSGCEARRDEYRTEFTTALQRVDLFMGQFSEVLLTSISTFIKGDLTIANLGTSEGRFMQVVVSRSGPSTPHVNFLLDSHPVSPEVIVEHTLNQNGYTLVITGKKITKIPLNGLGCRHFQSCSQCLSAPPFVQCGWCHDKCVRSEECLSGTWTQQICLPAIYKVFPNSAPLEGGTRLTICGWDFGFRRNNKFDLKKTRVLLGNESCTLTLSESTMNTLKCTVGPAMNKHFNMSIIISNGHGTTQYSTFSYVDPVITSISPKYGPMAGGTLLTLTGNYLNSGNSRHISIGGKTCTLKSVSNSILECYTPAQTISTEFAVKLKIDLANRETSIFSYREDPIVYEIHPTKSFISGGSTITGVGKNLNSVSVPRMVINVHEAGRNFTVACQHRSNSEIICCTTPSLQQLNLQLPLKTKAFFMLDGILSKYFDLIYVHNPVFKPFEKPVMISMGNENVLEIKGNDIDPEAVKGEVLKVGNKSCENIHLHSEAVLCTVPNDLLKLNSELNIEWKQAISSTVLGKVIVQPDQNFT
Experimental: (§1) Binding of labeled c-MET to CAR-T cells expressing the affinity tuned c-MET scFvs was evaluated by transducing lentivirus anti-c-MET CAR particles into human T cells to form c-MET CAR-T cells incubated with AF647-labeled c-MET. […] Following a 48 hr. incubation at 37° C., the culture media was brought up to […] per well and incubated at 37° C. for 10 days.
(§2) Cells were stained on ice for 30 mins and then washed with PBS. After washing, residually bound protein on CAR T cells were measured on a flow cytometer (Beckman, CytoFLEX®). The resulting binding data was fit using a non-linear regression analysis on GraphPad Prism to calculate half effective dose concentration (EC₅₀) values. The results of this analysis are shown in FIGS. 2-5 and Tables 2-5 below.

[6] = target: T2, AF647 labeled c-met protein; assay: flow cytometry, AF647-labeled c-met protein titrated on CAR-T cells (Round 2)
Experimental: as §1, §2

[7] = target: T1, c-MET on human target cells; assay: cell-based or functional assay; remark: listed apart in the source
[8] = target: T1, c-MET on human target cells; assay: cell-based or functional assay; remark: listed apart in the source
[9] = target: T1, c-MET on human target cells; assay: cell-based or functional assay; remark: listed apart in the source
[10] = target: T1, c-MET on human target cells; assay: cell-based or functional assay; remark: listed apart in the source
[11] = target: T1, c-MET on human target cells; assay: cell-based or functional assay; remark: listed apart in the source
[12] = target: T1, c-MET on human target cells; assay: cell-based or functional assay; remark: listed apart in the source
[13] = target: T1, c-MET on human target cells; assay: cell-based or functional assay; remark: listed apart in the source
[14] = target: T1, c-MET on human target cells; assay: cell-based or functional assay; remark: listed apart in the source
[15] = target: T1, c-MET on human target cells; assay: cell-based or functional assay; remark: listed apart in the source
[16] = target: T1, c-MET on human target cells; assay: cell-based or functional assay; remark: listed apart in the source
[17] = target: T1, c-MET on human target cells; assay: cell-based or functional assay; remark: listed apart in the source

T1 sequence (P08581 25-1390): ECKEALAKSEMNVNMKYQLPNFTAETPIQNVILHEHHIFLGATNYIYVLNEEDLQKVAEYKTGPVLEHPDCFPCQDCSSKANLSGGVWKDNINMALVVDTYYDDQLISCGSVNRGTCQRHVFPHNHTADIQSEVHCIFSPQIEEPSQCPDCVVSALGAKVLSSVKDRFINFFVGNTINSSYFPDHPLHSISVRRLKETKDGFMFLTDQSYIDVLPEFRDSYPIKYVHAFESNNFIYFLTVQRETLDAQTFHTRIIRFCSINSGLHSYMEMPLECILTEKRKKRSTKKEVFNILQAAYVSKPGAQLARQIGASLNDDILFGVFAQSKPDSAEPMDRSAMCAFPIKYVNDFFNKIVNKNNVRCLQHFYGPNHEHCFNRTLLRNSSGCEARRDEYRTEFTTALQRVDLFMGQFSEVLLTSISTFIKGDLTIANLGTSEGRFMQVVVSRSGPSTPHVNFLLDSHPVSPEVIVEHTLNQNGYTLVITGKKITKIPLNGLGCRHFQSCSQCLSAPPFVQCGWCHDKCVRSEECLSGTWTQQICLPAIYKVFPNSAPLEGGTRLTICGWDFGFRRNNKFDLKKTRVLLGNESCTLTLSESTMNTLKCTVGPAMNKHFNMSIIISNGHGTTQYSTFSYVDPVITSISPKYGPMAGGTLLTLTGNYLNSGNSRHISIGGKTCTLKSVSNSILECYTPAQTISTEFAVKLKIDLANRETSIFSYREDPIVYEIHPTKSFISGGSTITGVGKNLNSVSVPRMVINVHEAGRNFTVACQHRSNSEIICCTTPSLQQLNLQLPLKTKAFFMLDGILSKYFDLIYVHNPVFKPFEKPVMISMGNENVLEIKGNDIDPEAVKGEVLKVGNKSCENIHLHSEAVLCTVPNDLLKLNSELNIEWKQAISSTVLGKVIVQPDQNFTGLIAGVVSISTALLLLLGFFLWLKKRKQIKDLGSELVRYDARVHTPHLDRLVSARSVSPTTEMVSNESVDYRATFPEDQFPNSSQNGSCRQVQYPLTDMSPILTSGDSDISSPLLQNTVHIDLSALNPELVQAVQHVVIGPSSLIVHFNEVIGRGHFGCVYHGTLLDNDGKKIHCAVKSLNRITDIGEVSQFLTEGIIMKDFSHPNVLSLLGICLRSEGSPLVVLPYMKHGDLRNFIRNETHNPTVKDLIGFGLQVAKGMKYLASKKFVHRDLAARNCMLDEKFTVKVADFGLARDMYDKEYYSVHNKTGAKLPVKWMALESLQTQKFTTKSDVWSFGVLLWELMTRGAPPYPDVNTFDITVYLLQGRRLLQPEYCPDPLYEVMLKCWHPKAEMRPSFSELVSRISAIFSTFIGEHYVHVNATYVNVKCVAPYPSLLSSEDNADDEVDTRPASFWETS

B1: Affy6 CAR (control) (other)
chain: GSEQKLISEEDLGSQVQLVQSGAEVKKPGASVKVSCKASGYIFTAYTMHWVRQAPGQGLEWMGWIKPNNGLANYAQKFQGRVTMTRDTSISTAYMELSRLRSDDTAVYYCARSEITTEFDYWGQGTLVTVSSGGGGSGGGGSGGGGSDIVLTQSPDSLAVSLGERATINCKSSESVDSYANSFMHWYQQKPGQPPKLLIYRASTRESGVPDRFSGSGSRTDFTLTISSLQAEDVAVYYCQQSKEDPLTFGGGTKVEIKASTTTPAPRPPTPAPTIASQPLSLRPEACRPAAGGAVHTRGLDFACDFWVLVVVGGVLACYSLLVTVAFIIFWVRSKRSRLLHSDYMNMTPRRPGPTRKHYQPYAPPRDFAAYRSLRVKFSRSADAPAYQQGQNQLYNELNLGRREEYDVLDKRRGRDPEMGGKPRRKNPQEGLYNELQKDKMAEAYSEIGMKGERRRGKGHDGLYQGLSTATKDTYDALHMQALPPR
notes: Chimeric antigen receptor on transduced human T cells; P2A remnant not included; also called parent Affy6 CAR-T cells; parental Affy6
[1]
  cytotoxicity, Normal Human Lung Cells, 8 hrs: 38.4
  cytotoxicity, Normal Human Lung Cells, 16 hrs: 47.1
  cytotoxicity, Normal Human Lung Cells, 24 hrs: 54.7
  cytotoxicity, Normal Human Lung Cells, 32 hrs: 63.1
  cytotoxicity, Normal Human Lung Cells, 40 hrs: 76.4
  cytotoxicity, Normal Human Lung Cells, 48 hrs: 85.2
[2]
  cytotoxicity, Normal Human Liver Cells, 8 hrs: 28.4
  cytotoxicity, Normal Human Liver Cells, 16 hrs: 47.1
  cytotoxicity, Normal Human Liver Cells, 24 hrs: 59
  cytotoxicity, Normal Human Liver Cells, 32 hrs: 67.9
  cytotoxicity, Normal Human Liver Cells, 40 hrs: 76.8
  cytotoxicity, Normal Human Liver Cells, 48 hrs: 83.6
[3]
  cytotoxicity, Normal Human Kidney Cells, 8 hrs: 25.7
  cytotoxicity, Normal Human Kidney Cells, 16 hrs: 45.4
  cytotoxicity, Normal Human Kidney Cells, 24 hrs: 57
  cytotoxicity, Normal Human Kidney Cells, 32 hrs: 65.5
  cytotoxicity, Normal Human Kidney Cells, 40 hrs: 73
  cytotoxicity, Normal Human Kidney Cells, 48 hrs: 78.8
[4]
  cytotoxicity, Normal Human Colon Cells, 8 hrs: 24.6
  cytotoxicity, Normal Human Colon Cells, 16 hrs: 37.7
  cytotoxicity, Normal Human Colon Cells, 24 hrs: 46.4
  cytotoxicity, Normal Human Colon Cells, 32 hrs: 57.3
  cytotoxicity, Normal Human Colon Cells, 40 hrs: 72.3
  cytotoxicity, Normal Human Colon Cells, 48 hrs: 83.8
[5]
  EC50: 20 nM
[6]
  EC50: 20 nM

B2: Affy7 CAR (control) (other)
chain: GSEQKLISEEDLGSQVQLQQSGPELVRPGASVKMSCRASGYTFTSYWLHWVKQRPGQGLEWIGMIDPSNSDTRFNPNFKDKATLNVDRSSNTAYMLLSSLTSADSAVYYCATYGSYVSPLDYWGQGTSVTVSSGGGGSGGGGSGGGGSDIMMSQSPSSLTVSVGEKVTVSCKSSQSLLYTSSQKNYLAWYQQKPGQSPKLLIYWASTRESGVPDRFTGSGSGTDFTLTITSVKADDLAVYYCQQYYAYPWTFGGGTKLEIKRASTTTPAPRPPTPAPTIASQPLSLRPEACRPAAGGAVHTRGLDFACDFWVLVVVGGVLACYSLLVTVAFIIFWVRSKRSRLLHSDYMNMTPRRPGPTRKHYQPYAPPRDFAAYRSLRVKFSRSADAPAYQQGQNQLYNELNLGRREEYDVLDKRRGRDPEMGGKPRRKNPQEGLYNELQKDKMAEAYSEIGMKGERRRGKGHDGLYQGLSTATKDTYDALHMQALPPR
notes: residues of P2A left at the intracellular C-terminus are not included; also called parent Affy7 CAR-T cells; parental Affy7
[7]
  percent cytotoxicity, SNU638, 24 hrs: 78.6%
  percent cytotoxicity, SNU638, 48 hrs: 95.9%
  percent cytotoxicity, SNU638, 72 hrs: 99.5%
[8]
  percent cytotoxicity, Hs746T, 24 hrs: 87.1%
  percent cytotoxicity, Hs746T, 48 hrs: 97.6%
  percent cytotoxicity, Hs746T, 72 hrs: 99.2%
[9]
  percent cytotoxicity, H1993, 24 hrs: 85.6%
  percent cytotoxicity, H1993, 48 hrs: 97.7%
  percent cytotoxicity, H1993, 72 hrs: 99.6%
[10]
  cytotoxicity, Normal Human Lung Cells, 8 hrs: 14.7
  cytotoxicity, Normal Human Lung Cells, 16 hrs: 33.3
  cytotoxicity, Normal Human Lung Cells, 24 hrs: 50.7
  cytotoxicity, Normal Human Lung Cells, 32 hrs: 57.1
  cytotoxicity, Normal Human Lung Cells, 40 hrs: 59.9
  cytotoxicity, Normal Human Lung Cells, 47 hrs: 56.5
[11]
  cytotoxicity, Normal Human Lung Cells, 8 hrs: 31.8
  cytotoxicity, Normal Human Lung Cells, 16 hrs: 35.7
  cytotoxicity, Normal Human Lung Cells, 24 hrs: 43.2
  cytotoxicity, Normal Human Lung Cells, 32 hrs: 55.8
  cytotoxicity, Normal Human Lung Cells, 40 hrs: 67.5
  cytotoxicity, Normal Human Lung Cells, 48 hrs: 76
[12]
  cytotoxicity, Normal Human Liver Cells, 8 hrs: 17.7
  cytotoxicity, Normal Human Liver Cells, 16 hrs: 30.1
  cytotoxicity, Normal Human Liver Cells, 24 hrs: 38.6
  cytotoxicity, Normal Human Liver Cells, 32 hrs: 46.2
  cytotoxicity, Normal Human Liver Cells, 40 hrs: 59.1
  cytotoxicity, Normal Human Liver Cells, 48 hrs: 68.7
[13]
  cytotoxicity, Normal Human Liver Cells, 8 hrs: 23.4
  cytotoxicity, Normal Human Liver Cells, 16 hrs: 36.9
  cytotoxicity, Normal Human Liver Cells, 24 hrs: 50.7
  cytotoxicity, Normal Human Liver Cells, 32 hrs: 64
  cytotoxicity, Normal Human Liver Cells, 40 hrs: 71.2
  cytotoxicity, Normal Human Liver Cells, 48 hrs: 73.4
[14]
  cytotoxicity, Normal Human Kidney Cells, 8 hrs: 12.5
  cytotoxicity, Normal Human Kidney Cells, 16 hrs: 27.2
  cytotoxicity, Normal Human Kidney Cells, 24 hrs: 32.4
  cytotoxicity, Normal Human Kidney Cells, 32 hrs: 36.9
  cytotoxicity, Normal Human Kidney Cells, 40 hrs: 47.4
  cytotoxicity, Normal Human Kidney Cells, 48 hrs: 59
[15]
  cytotoxicity, Normal Human Kidney Cells, 8 hrs: 32.7
  cytotoxicity, Normal Human Kidney Cells, 16 hrs: 43.5
  cytotoxicity, Normal Human Kidney Cells, 24 hrs: 53.8
  cytotoxicity, Normal Human Kidney Cells, 32 hrs: 61.2
  cytotoxicity, Normal Human Kidney Cells, 40 hrs: 70.2
  cytotoxicity, Normal Human Kidney Cells, 48 hrs: 76.5
[16]
  cytotoxicity, Normal Human Colon Cells, 8 hrs: 13.8
  cytotoxicity, Normal Human Colon Cells, 16 hrs: 29.3
  cytotoxicity, Normal Human Colon Cells, 24 hrs: 34.9
  cytotoxicity, Normal Human Colon Cells, 32 hrs: 42.8
  cytotoxicity, Normal Human Colon Cells, 40 hrs: 54.1
  cytotoxicity, Normal Human Colon Cells, 48 hrs: 60.1
[17]
  cytotoxicity, Normal Human Colon Cells, 8 hrs: 28.5
  cytotoxicity, Normal Human Colon Cells, 16 hrs: 33.9
  cytotoxicity, Normal Human Colon Cells, 24 hrs: 43.2
  cytotoxicity, Normal Human Colon Cells, 32 hrs: 57
  cytotoxicity, Normal Human Colon Cells, 40 hrs: 69.7
  cytotoxicity, Normal Human Colon Cells, 48 hrs: 79.4
[5]
  EC50: 50 nM
[6]
  EC50: 100 nM
